In this assay the target is human corticotropin-releasing factor 2a (CRF2a receptor) (human), Q13324. Description: cell-based or functional assay.

Experimental findings from patent US20260001928A1 (CORTERIA PHARMACEUTICALS, priority 2022, published 2026) are described below.

*1 amine or outer side, *2 acyl side, *3 side chain or, on linkers, in order; H or OH if unused. Where no end group is shown, it is not given here. Side-chain parts run from the residue outwards. [ ]: non-standard residue; d: D form. The star is where a group is joined. C20 diacid = O=C(O)CCCCCCCCCCCCCCCCCCC(=O)*; γGlu = O=C(O)[C@H](CCC(=O)[*:2])N[*:1]; NMeI = CC[C@H](C)[C@H](NC)C(=O)O; AEEA = NCCOCCOCC(=O)O; Aib = CC(C)(N)C(=O)O

Chain of human corticotropin-releasing factor 2a (CRF2a receptor) (human), Q13324 (Q13324 20-411): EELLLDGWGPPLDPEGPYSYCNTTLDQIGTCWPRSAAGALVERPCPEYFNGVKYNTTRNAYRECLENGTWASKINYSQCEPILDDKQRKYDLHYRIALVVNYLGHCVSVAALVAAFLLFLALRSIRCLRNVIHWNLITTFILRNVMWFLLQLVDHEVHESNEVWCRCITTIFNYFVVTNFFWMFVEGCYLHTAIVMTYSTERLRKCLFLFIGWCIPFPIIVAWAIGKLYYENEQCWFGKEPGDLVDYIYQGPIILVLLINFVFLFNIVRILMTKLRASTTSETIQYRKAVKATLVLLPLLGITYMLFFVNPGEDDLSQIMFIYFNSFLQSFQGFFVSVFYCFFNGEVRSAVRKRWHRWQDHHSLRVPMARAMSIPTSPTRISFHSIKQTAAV

B1: SEQ ID NO 242 (peptide)
peptide: [NMeI]VLSLD[dV]PIKLK([γGlu-γGlu-C20 diacid])KILLEQEKQKEQREQAETN[Aib]QILAQV-NH2
modifications: N-terminus assumed
SMILES: CC[C@H](C)[C@H](NC)C(=O)N[C@H](C(=O)N[C@@H](CC(C)C)C(=O)N[C@@H](CO)C(=O)N[C@@H](CC(C)C)C(=O)N[C@@H](CC(=O)O)C(=O)N[C@@H](C(=O)N1CCC[C@H]1C(=O)N[C@H](C(=O)N[C@@H](CCCCN)C(=O)N[C@@H](CC(C)C)C(=O)N[C@@H](CCCCNC(=O)CC[C@H](NC(=O)CC[C@H](NC(=O)CCCCCCCCCCCCCCCCCCC(=O)O)C(=O)O)C(=O)O)C(=O)N[C@@H](CCCCN)C(=O)N[C@H](C(=O)N[C@@H](CC(C)C)C(=O)N[C@@H](CC(C)C)C(=O)N[C@@H](CCC(=O)O)C(=O)N[C@@H](CCC(N)=O)C(=O)N[C@@H](CCC(=O)O)C(=O)N[C@@H](CCCCN)C(=O)N[C@@H](CCC(N)=O)C(=O)N[C@@H](CCCCN)C(=O)N[C@@H](CCC(=O)O)C(=O)N[C@@H](CCC(N)=O)C(=O)N[C@@H](CCCNC(=N)N)C(=O)N[C@@H](CCC(=O)O)C(=O)N[C@@H](CCC(N)=O)C(=O)N[C@@H](C)C(=O)N[C@@H](CCC(=O)O)C(=O)N[C@H](C(=O)N[C@@H](CC(N)=O)C(=O)NC(C)(C)C(=O)N[C@@H](CCC(N)=O)C(=O)N[C@H](C(=O)N[C@@H](CC(C)C)C(=O)N[C@@H](C)C(=O)N[C@@H](CCC(N)=O)C(=O)N[C@H](C(N)=O)C(C)C)[C@@H](C)CC)[C@@H](C)O)[C@@H](C)CC)[C@@H](C)CC)C(C)C)C(C)C
For the molecule B1, the EC50 [nM] (cAMP) came to 0.22 nM.

B2: SEQ ID NO 239 (peptide)
peptide: [NMeI]VLSLD[dV]PIKLK([AEEA-AEEA-γGlu-C20 diacid])KILLEQEKQK[Aib]QREQAETN[Aib]QILAQV-NH2
modifications: N-terminus assumed
SMILES: CC[C@H](C)[C@H](NC)C(=O)N[C@H](C(=O)N[C@@H](CC(C)C)C(=O)N[C@@H](CO)C(=O)N[C@@H](CC(C)C)C(=O)N[C@@H](CC(=O)O)C(=O)N[C@@H](C(=O)N1CCC[C@H]1C(=O)N[C@H](C(=O)N[C@@H](CCCCN)C(=O)N[C@@H](CC(C)C)C(=O)N[C@@H](CCCCNC(=O)COCCOCCNC(=O)COCCOCCNC(=O)CC[C@H](NC(=O)CCCCCCCCCCCCCCCCCCC(=O)O)C(=O)O)C(=O)N[C@@H](CCCCN)C(=O)N[C@H](C(=O)N[C@@H](CC(C)C)C(=O)N[C@@H](CC(C)C)C(=O)N[C@@H](CCC(=O)O)C(=O)N[C@@H](CCC(N)=O)C(=O)N[C@@H](CCC(=O)O)C(=O)N[C@@H](CCCCN)C(=O)N[C@@H](CCC(N)=O)C(=O)N[C@@H](CCCCN)C(=O)NC(C)(C)C(=O)N[C@@H](CCC(N)=O)C(=O)N[C@@H](CCCNC(=N)N)C(=O)N[C@@H](CCC(=O)O)C(=O)N[C@@H](CCC(N)=O)C(=O)N[C@@H](C)C(=O)N[C@@H](CCC(=O)O)C(=O)N[C@H](C(=O)N[C@@H](CC(N)=O)C(=O)NC(C)(C)C(=O)N[C@@H](CCC(N)=O)C(=O)N[C@H](C(=O)N[C@@H](CC(C)C)C(=O)N[C@@H](C)C(=O)N[C@@H](CCC(N)=O)C(=O)N[C@H](C(N)=O)C(C)C)[C@@H](C)CC)[C@@H](C)O)[C@@H](C)CC)[C@@H](C)CC)C(C)C)C(C)C
B2: the EC50 [nM] (cAMP) was determined as 0.11 nM.

B3: SEQ ID NO 241 (peptide)
peptide: Ac-IVLSLD[dV]PIKLK([γGlu-γGlu-C20 diacid])KILLEQEKQKEQREQAETN[Aib]QILAQV-NH2
SMILES: CC[C@H](C)[C@H](NC(C)=O)C(=O)N[C@H](C(=O)N[C@@H](CC(C)C)C(=O)N[C@@H](CO)C(=O)N[C@@H](CC(C)C)C(=O)N[C@@H](CC(=O)O)C(=O)N[C@@H](C(=O)N1CCC[C@H]1C(=O)N[C@H](C(=O)N[C@@H](CCCCN)C(=O)N[C@@H](CC(C)C)C(=O)N[C@@H](CCCCNC(=O)CC[C@H](NC(=O)CC[C@H](NC(=O)CCCCCCCCCCCCCCCCCCC(=O)O)C(=O)O)C(=O)O)C(=O)N[C@@H](CCCCN)C(=O)N[C@H](C(=O)N[C@@H](CC(C)C)C(=O)N[C@@H](CC(C)C)C(=O)N[C@@H](CCC(=O)O)C(=O)N[C@@H](CCC(N)=O)C(=O)N[C@@H](CCC(=O)O)C(=O)N[C@@H](CCCCN)C(=O)N[C@@H](CCC(N)=O)C(=O)N[C@@H](CCCCN)C(=O)N[C@@H](CCC(=O)O)C(=O)N[C@@H](CCC(N)=O)C(=O)N[C@@H](CCCNC(=N)N)C(=O)N[C@@H](CCC(=O)O)C(=O)N[C@@H](CCC(N)=O)C(=O)N[C@@H](C)C(=O)N[C@@H](CCC(=O)O)C(=O)N[C@H](C(=O)N[C@@H](CC(N)=O)C(=O)NC(C)(C)C(=O)N[C@@H](CCC(N)=O)C(=O)N[C@H](C(=O)N[C@@H](CC(C)C)C(=O)N[C@@H](C)C(=O)N[C@@H](CCC(N)=O)C(=O)N[C@H](C(N)=O)C(C)C)[C@@H](C)CC)[C@@H](C)O)[C@@H](C)CC)[C@@H](C)CC)C(C)C)C(C)C
The molecule B3 came in with an EC50 [nM] (cAMP) of 0.56 nM.

B4: SEQ ID NO 243 (peptide)
peptide: Ac-IVLSLD[dV]PIKLK([γGlu-γGlu-C20 diacid])KILLEQEKQKKQREQAETN[Aib]QILAQV-NH2
SMILES: CC[C@H](C)[C@H](NC(C)=O)C(=O)N[C@H](C(=O)N[C@@H](CC(C)C)C(=O)N[C@@H](CO)C(=O)N[C@@H](CC(C)C)C(=O)N[C@@H](CC(=O)O)C(=O)N[C@@H](C(=O)N1CCC[C@H]1C(=O)N[C@H](C(=O)N[C@@H](CCCCN)C(=O)N[C@@H](CC(C)C)C(=O)N[C@@H](CCCCNC(=O)CC[C@H](NC(=O)CC[C@H](NC(=O)CCCCCCCCCCCCCCCCCCC(=O)O)C(=O)O)C(=O)O)C(=O)N[C@@H](CCCCN)C(=O)N[C@H](C(=O)N[C@@H](CC(C)C)C(=O)N[C@@H](CC(C)C)C(=O)N[C@@H](CCC(=O)O)C(=O)N[C@@H](CCC(N)=O)C(=O)N[C@@H](CCC(=O)O)C(=O)N[C@@H](CCCCN)C(=O)N[C@@H](CCC(N)=O)C(=O)N[C@@H](CCCCN)C(=O)N[C@@H](CCCCN)C(=O)N[C@@H](CCC(N)=O)C(=O)N[C@@H](CCCNC(=N)N)C(=O)N[C@@H](CCC(=O)O)C(=O)N[C@@H](CCC(N)=O)C(=O)N[C@@H](C)C(=O)N[C@@H](CCC(=O)O)C(=O)N[C@H](C(=O)N[C@@H](CC(N)=O)C(=O)NC(C)(C)C(=O)N[C@@H](CCC(N)=O)C(=O)N[C@H](C(=O)N[C@@H](CC(C)C)C(=O)N[C@@H](C)C(=O)N[C@@H](CCC(N)=O)C(=O)N[C@H](C(N)=O)C(C)C)[C@@H](C)CC)[C@@H](C)O)[C@@H](C)CC)[C@@H](C)CC)C(C)C)C(C)C
B4 registered an EC50 [nM] (cAMP) of 0.13 nM.

B5: SEQ ID NO 240 (peptide)
peptide: Ac-IVLSLD[dV]PIKLK([AEEA-AEEA-γGlu-C20 diacid])KILLEQEKQKAQREQAETN[Aib]QILAQV-NH2
SMILES: CC[C@H](C)[C@H](NC(C)=O)C(=O)N[C@H](C(=O)N[C@@H](CC(C)C)C(=O)N[C@@H](CO)C(=O)N[C@@H](CC(C)C)C(=O)N[C@@H](CC(=O)O)C(=O)N[C@@H](C(=O)N1CCC[C@H]1C(=O)N[C@H](C(=O)N[C@@H](CCCCN)C(=O)N[C@@H](CC(C)C)C(=O)N[C@@H](CCCCNC(=O)COCCOCCNC(=O)COCCOCCNC(=O)CC[C@H](NC(=O)CCCCCCCCCCCCCCCCCCC(=O)O)C(=O)O)C(=O)N[C@@H](CCCCN)C(=O)N[C@H](C(=O)N[C@@H](CC(C)C)C(=O)N[C@@H](CC(C)C)C(=O)N[C@@H](CCC(=O)O)C(=O)N[C@@H](CCC(N)=O)C(=O)N[C@@H](CCC(=O)O)C(=O)N[C@@H](CCCCN)C(=O)N[C@@H](CCC(N)=O)C(=O)N[C@@H](CCCCN)C(=O)N[C@@H](C)C(=O)N[C@@H](CCC(N)=O)C(=O)N[C@@H](CCCNC(=N)N)C(=O)N[C@@H](CCC(=O)O)C(=O)N[C@@H](CCC(N)=O)C(=O)N[C@@H](C)C(=O)N[C@@H](CCC(=O)O)C(=O)N[C@H](C(=O)N[C@@H](CC(N)=O)C(=O)NC(C)(C)C(=O)N[C@@H](CCC(N)=O)C(=O)N[C@H](C(=O)N[C@@H](CC(C)C)C(=O)N[C@@H](C)C(=O)N[C@@H](CCC(N)=O)C(=O)N[C@H](C(N)=O)C(C)C)[C@@H](C)CC)[C@@H](C)O)[C@@H](C)CC)[C@@H](C)CC)C(C)C)C(C)C
In turn, B5 had an EC50 [nM] (cAMP) of 0.22 nM.

B6: SEQ ID NO 244 (peptide)
peptide: Ac-IVLSLD[dV]PIKLK([γGlu-γGlu-C20 diacid])KILLEQEKQKAQREQAETN[Aib]QILAQV-NH2
SMILES: CC[C@H](C)[C@H](NC(C)=O)C(=O)N[C@H](C(=O)N[C@@H](CC(C)C)C(=O)N[C@@H](CO)C(=O)N[C@@H](CC(C)C)C(=O)N[C@@H](CC(=O)O)C(=O)N[C@@H](C(=O)N1CCC[C@H]1C(=O)N[C@H](C(=O)N[C@@H](CCCCN)C(=O)N[C@@H](CC(C)C)C(=O)N[C@@H](CCCCNC(=O)CC[C@H](NC(=O)CC[C@H](NC(=O)CCCCCCCCCCCCCCCCCCC(=O)O)C(=O)O)C(=O)O)C(=O)N[C@@H](CCCCN)C(=O)N[C@H](C(=O)N[C@@H](CC(C)C)C(=O)N[C@@H](CC(C)C)C(=O)N[C@@H](CCC(=O)O)C(=O)N[C@@H](CCC(N)=O)C(=O)N[C@@H](CCC(=O)O)C(=O)N[C@@H](CCCCN)C(=O)N[C@@H](CCC(N)=O)C(=O)N[C@@H](CCCCN)C(=O)N[C@@H](C)C(=O)N[C@@H](CCC(N)=O)C(=O)N[C@@H](CCCNC(=N)N)C(=O)N[C@@H](CCC(=O)O)C(=O)N[C@@H](CCC(N)=O)C(=O)N[C@@H](C)C(=O)N[C@@H](CCC(=O)O)C(=O)N[C@H](C(=O)N[C@@H](CC(N)=O)C(=O)NC(C)(C)C(=O)N[C@@H](CCC(N)=O)C(=O)N[C@H](C(=O)N[C@@H](CC(C)C)C(=O)N[C@@H](C)C(=O)N[C@@H](CCC(N)=O)C(=O)N[C@H](C(N)=O)C(C)C)[C@@H](C)CC)[C@@H](C)O)[C@@H](C)CC)[C@@H](C)CC)C(C)C)C(C)C
Take B6: the EC50 [nM] (cAMP) came to 0.28 nM.
